# Target: 2CC-core (HIV-1 YU2) (UniProt P35961)
# Assay: SPR, 2CC-core on chip, IgG injected
# 3BNC117 (antibody), sequence (VH): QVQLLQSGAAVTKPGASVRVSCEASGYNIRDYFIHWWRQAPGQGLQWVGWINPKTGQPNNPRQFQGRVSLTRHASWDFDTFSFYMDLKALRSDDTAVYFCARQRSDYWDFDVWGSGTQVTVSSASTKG
# 3BNC117 (antibody), sequence (VL): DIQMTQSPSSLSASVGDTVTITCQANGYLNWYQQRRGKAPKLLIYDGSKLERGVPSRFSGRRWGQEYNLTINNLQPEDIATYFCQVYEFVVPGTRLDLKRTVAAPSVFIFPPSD
# 12A21 (antibody), sequence (VH): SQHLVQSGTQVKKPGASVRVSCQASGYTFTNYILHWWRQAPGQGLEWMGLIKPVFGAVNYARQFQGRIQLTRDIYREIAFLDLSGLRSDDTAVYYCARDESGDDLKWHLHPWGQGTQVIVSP
# 12A21 (antibody), sequence (VL): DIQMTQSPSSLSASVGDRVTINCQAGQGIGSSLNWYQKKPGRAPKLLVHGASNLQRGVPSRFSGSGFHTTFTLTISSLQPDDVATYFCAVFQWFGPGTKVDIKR
# 3BNC55 (antibody), sequence (V domain): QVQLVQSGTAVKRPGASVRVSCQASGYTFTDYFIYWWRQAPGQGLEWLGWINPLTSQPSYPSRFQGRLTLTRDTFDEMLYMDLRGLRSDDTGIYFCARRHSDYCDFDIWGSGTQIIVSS
# 3BNC55 (antibody), sequence (VL): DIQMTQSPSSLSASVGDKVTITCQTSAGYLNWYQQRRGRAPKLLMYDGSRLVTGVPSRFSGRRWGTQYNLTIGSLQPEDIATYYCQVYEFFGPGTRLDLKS
# 3BNC60 (antibody), sequence (VH): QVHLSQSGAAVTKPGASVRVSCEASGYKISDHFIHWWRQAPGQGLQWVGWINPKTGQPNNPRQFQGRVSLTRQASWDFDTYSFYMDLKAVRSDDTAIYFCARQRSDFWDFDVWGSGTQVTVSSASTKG
# 3BNC60 (antibody), sequence (VL): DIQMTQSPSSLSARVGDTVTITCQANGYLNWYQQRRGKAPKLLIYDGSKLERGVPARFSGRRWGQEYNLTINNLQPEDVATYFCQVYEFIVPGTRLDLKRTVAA
# 8ANC195 (antibody), sequence (V domain): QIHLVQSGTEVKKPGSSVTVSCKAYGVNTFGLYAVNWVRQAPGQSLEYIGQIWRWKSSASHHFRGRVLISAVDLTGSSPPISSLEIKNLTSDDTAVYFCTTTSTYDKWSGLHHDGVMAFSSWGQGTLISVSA
# 8ANC195 (antibody), sequence (VL): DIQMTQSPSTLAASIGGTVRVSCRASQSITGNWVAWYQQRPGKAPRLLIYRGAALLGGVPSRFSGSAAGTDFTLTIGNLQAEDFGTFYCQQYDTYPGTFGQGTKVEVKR
# NIH45-46 (antibody), sequence (VH): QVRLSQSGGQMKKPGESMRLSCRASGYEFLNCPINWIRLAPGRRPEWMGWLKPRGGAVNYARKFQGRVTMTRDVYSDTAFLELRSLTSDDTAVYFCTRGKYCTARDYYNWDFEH
# NIH45-46 (antibody), sequence (VL): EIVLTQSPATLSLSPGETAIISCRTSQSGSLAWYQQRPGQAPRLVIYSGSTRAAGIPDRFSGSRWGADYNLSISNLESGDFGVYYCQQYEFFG
# 12A12 (antibody), sequence (VH): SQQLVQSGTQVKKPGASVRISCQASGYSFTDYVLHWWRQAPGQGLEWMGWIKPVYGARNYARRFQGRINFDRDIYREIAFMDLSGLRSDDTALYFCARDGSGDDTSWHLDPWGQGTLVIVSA
# 12A12 (antibody), sequence (VL): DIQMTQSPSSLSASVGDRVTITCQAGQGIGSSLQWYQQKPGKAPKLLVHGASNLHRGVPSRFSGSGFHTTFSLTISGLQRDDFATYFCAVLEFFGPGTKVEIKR
# 3BNC156 (antibody), sequence (VH): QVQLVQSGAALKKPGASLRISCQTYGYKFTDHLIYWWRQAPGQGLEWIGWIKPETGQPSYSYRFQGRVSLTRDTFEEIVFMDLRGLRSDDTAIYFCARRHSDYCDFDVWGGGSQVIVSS
# 3BNC156 (antibody), sequence (VL): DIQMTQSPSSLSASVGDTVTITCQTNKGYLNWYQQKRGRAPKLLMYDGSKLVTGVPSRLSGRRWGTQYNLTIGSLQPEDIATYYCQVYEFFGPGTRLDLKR
# 3BNC66 (antibody), sequence (V domain): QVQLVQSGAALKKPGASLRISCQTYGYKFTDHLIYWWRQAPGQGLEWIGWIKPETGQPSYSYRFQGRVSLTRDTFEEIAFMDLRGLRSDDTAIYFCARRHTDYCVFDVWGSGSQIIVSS
# 3BNC66 (antibody), sequence (VL): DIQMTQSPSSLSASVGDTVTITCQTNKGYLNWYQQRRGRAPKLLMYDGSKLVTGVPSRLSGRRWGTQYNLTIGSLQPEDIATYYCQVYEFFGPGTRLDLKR
Substance,Kd [nM],koff [s⁻¹],kon [M⁻¹ s⁻¹]
3BNC55 (antibody),25.7,,
3BNC156 (antibody),81.2,0.00153,18800
1B2530 (antibody),5.9,0.000402,68300
NIH45-46 (antibody),4.4,0.000494,112000
1NC9 (antibody),4.61,0.000236,51100
8ANC134 (antibody),46.1,0.000957,20800
3BNC117 (antibody),36.8,,
12A12 (antibody),0.0269,1.7e-06,63300
12A21 (antibody),1.81,0.00033,182000
3BNC66 (antibody),33.6,0.00133,39600
8ANC131 (antibody),66.1,0.00323,48800
8ANC195 (antibody),54.7,0.00132,24100
3BNC60 (antibody),54.5,0.00164,30200

# Target: 2CC-core (HIV-1 YU2) (UniProt P35961)
# Assay: not given
Substance,koff [s⁻¹],kon [M⁻¹ s⁻¹]
3BNC55 (antibody),0.000815,31600
3BNC117 (antibody),0.00149,40500

# From patent US20210230254A1
